Source: patent publication US20240083986A1 (published 2024)

T1: European Hornbeam (Car b 1 isoform 2, MyBiosource, Cat #MBS1043940) (European Hornbeam, UniProt P38950 2-160, limits assumed)
T1 construct: Bought reagent
T1 sequence (looked up): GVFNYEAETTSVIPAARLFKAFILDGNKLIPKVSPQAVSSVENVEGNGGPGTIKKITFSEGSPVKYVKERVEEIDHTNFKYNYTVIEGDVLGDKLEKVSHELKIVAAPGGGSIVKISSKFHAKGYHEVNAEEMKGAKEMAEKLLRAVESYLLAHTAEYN

T2: CHO produced recombinant Bet v 1 containing a S85A mutation with a C-terminal myc-myc hexahistidine tag … (Betula verrucosa (birch))
T2 chain: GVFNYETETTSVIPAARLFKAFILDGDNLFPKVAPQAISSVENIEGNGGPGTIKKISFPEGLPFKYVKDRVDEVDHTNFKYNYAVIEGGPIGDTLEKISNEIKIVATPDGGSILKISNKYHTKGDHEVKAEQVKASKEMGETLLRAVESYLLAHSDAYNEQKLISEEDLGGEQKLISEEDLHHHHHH

T3: Apple (Mal d 1, MyBiosource, Cat #MBS1224919) (Apple, UniProt P43211 2-159, limits assumed)
T3 construct: Bought reagent
T3 sequence (looked up): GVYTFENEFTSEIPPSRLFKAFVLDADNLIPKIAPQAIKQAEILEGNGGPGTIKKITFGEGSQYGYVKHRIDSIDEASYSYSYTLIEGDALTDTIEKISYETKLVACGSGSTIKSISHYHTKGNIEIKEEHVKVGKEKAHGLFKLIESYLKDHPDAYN

T4: Celery (Api g 1, MyBiosource, Cat #MBS1171376) (Celery, UniProt P49372 1-154, limits assumed)
T4 construct: Bought reagent
T4 sequence (looked up): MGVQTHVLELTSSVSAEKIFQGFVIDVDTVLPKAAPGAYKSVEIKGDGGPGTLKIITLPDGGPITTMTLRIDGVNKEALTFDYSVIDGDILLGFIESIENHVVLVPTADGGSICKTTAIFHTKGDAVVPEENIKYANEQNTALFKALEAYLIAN

T5: Alder (Aln g 1, MyBiosource, Cat #MBS1041484) (Alder, UniProt P38948 2-160, limits assumed)
T5 construct: Bought reagent
T5 sequence (looked up): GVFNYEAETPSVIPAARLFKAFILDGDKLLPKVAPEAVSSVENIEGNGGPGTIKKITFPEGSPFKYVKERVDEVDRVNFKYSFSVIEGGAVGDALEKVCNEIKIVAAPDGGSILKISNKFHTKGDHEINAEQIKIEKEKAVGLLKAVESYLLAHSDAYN

T6: European Hornbeam (Car b 1 isoform 1A & 1B, MyBiosource, Cat #MBS1200018) (European Hornbeam, UniProt P38949 2-160)
T6 construct: Bought reagent
T6 sequence (looked up): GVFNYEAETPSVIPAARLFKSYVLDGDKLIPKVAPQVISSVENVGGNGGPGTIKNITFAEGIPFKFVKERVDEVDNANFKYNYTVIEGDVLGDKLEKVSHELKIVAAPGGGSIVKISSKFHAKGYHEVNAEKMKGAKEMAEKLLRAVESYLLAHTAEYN

B1: H4H16979P (antibody, human IgG4, V domains shown)
VH: QVQLVQSGAEVKKPGASVKVSCKASGYTFIAYYLHWVRQAPGQGLEWMGLLNPYTGGSYYTQKFQGRVTMTRDTSIDTAYMELNSLRSDDTAIYYCARDKRSYYIPYAFEIWGQGTMVTVSS
VL: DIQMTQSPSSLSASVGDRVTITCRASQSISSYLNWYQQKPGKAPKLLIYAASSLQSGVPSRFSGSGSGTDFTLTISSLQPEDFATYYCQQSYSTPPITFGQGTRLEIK
notes: Fully human antibody with human IgG4 Fc (H4H prefix)
B2: H4H16987P (antibody, human IgG4 S228P, kappa, V domains shown)
VH: EVQLVESGGGLVQPGGSLRLSCAASGFTVSSNSMSWVRQAPGEGLEWVSVIFSGGITYYSDSVKGRFTISRHNSKNTLYLQMNSLRTEDTAVYYCARHSNWNFDAFDIWGQGTMVTVSS
VL: DIQMTQSPSSLSASVGDRVTITCRASQSFDTYLNWYQQKPGKAPNLLIYATSSLQSGVPSRFSGSGSGTDFTLTISSLQPEDFGTYYCQQSYSIPYTFGQGTKLEIKR
notes: human IgG4 Fc; also called MAB4
B3: H4H16991P (antibody, human IgG4, V domains shown)
VH: QVQLVQSGAEVRKPGASVKVSCKASGYTFTGYYLHWVRQAPGQGLEWMGLINPNTGGTNFAQKFQGRVTMTRDSSISAAYMELSRLRSDDTAVYYCARQHWNRYFDNWGQGTLVTVSS
VL: DIQMTQSPSTLSASVGDRVTITCRASQSVGNWLAWYQQKPGKAPKLLIQEASSIESGVPSRFSGSGSGTEFTLIVSSLQPDDFATYYCQQYNSYSWTFGHGTKVEIK
notes: as for B1
B4: H4H17001P (antibody, human IgG4, V domains shown)
VH: QVQLVESGGGLVKPGGSLRLSCAASGFTFSDYYMNWIRQAPGKGLEWISLISSSGSAIYYSDSVKGRFTISRDNARKSLYLQVNSLRAEDTAVYYCARDRGEWALGAYYYGLDVWGQGTTVTVSS
VL: DIVMTQSPLSLPVTPGEPASISCRSSQSLLHSDGYNYLDWYLQKSGQSPQLLIYLGSNRASGVPDRFSGSGSGTDFTLKISRMEAEDVGVYYCMQALQTPYTFGQGTKLEIK
notes: as for B1
B5: H4H17015P (antibody, human IgG4, V domains shown)
VH: QVQLQESGPGLVKPSQTLSLTCTVSGGSISSADHYWSWIRQQPGKGLEWIGYISYRGTTYYNPTLESRVSISVDTFKNQFSLMLHSVTVADTAVYYCAKVLQGLVRFRDYGFDVWGQGTTVTVSS
VL: DIQLTQSPPFLSASVGDRVTITCWASQDISSYLAWYQQNPGKSPKLLIYDAFTLHTGVPSRFSGSGSGTEFTLTISSLQPEDFATFYCQHLYSFPFTFGPGTKVDIK
notes: as for B1
B6: H4H17027P (antibody, human IgG4, V domains shown)
VH: EVQLVESGGGLVQPGGSLRLSCAASGFTFRNYAMHWVRQAPGEGLEWVAAIYRNSDSIDYADSVKGRFTISRDNAKNSLYLQMNSLKTEDTALYYCAKDEGFLEYFDSWGQGTLVTVSS
VL: EIVLTQSPGTLSLSPGERASLSCRASQSVSSSFLAWYQQKPGQAPRLLIYGVSSRFIGIPDRFSGGGSGTDFTLTITRLEPEDFAVYYCQQYGRSPWTFGQGTKVEIK
notes: as for B1

Biological target: T1, European Hornbeam (Car b 1 isoform 2, …)
Test: SPR, mAb captured via anti-hFc, 25 C
Protocol: (§1) Equilibrium dissociation constants (KD) for different related allergens binding to purified anti-Bet v 1 monoclonal antibodies were determined using a real-time surface plasmon resonance biosensor (SPR-Biacore) on a Biacore 4000 instrument. All binding studies were performed in 10 mM HEPES, 150 mM NaCl, 3 mM EDTA, and 0.05% v/v surfactant Tween-20, pH 7.4 (HBS-ET) running buffer at 25° C. […] Binding studies were performed on the following related allergens: Alder (Aln g 1, MyBiosource, Cat #MBS1041484), Apple (Mal d 1, MyBiosource, Cat #MBS1224919), Carrot (Dau c 1.2, MyBiosource, Cat #MBS1212920), Celery (Api g 1, MyBiosource, Cat #MBS1171376), Celery (Api g 2, MyBiosource, Cat #MBS1047880), European Hornbeam (Car b 1 isoform 1A & 1B, MyBiosource, Cat #MBS1200018), European Hornbeam (Car b 1 isoform 2, MyBiosource, Cat #MBS1043940), Hazel (Cor A 1, MyBiosource, Cat #MBS5304600), and White Oak (Que a 1, MyBiosource, Cat #MBS1258822). […] Association (kₐ) and dissociation (kd) rate constants were determined by fitting the real-time binding sensorgrams to a 1:1 binding model with mass transport limitation using Scrubber 2.0c curve-fitting software. Binding dissociation equilibrium constants (KD) and dissociative half-lives (t½) were calculated from the kinetic rate constants as:

| Binder | 100 nM Analyte Bound (RU) | Kd | koff | kon | t½ | binding result |
| --- | --- | --- | --- | --- | --- | --- |
| B1 | 114 RU | 2.48 nM | 0.00241 s⁻¹ | 971000 M⁻¹ s⁻¹ | 4.8 min |  |
| B2 | 153 RU | 5.56 nM | 0.00561 s⁻¹ | 1.01e+06 M⁻¹ s⁻¹ | 2.1 min |  |
| B3 | 93 RU | 37.8 nM | 0.0404 s⁻¹ | 1.07e+06 M⁻¹ s⁻¹ | 0.3 min |  |
| B4 | 157 RU | 1.58 nM | 0.0032 s⁻¹ | 2.03e+06 M⁻¹ s⁻¹ | 3.6 min |  |
| B5 | 2 RU |  |  |  |  | no binding (tested: 100 nM) |
| B6 | 42 RU | 98.9 nM | 0.00577 s⁻¹ | 58400 M⁻¹ s⁻¹ | 2 min |  |

Biological target: T2, CHO produced recombinant Bet v 1 …
Test: SPR, mAb captured via anti-hFc, 37 C
Protocol: (§2) Equilibrium dissociation constants (KD) for natural Bet v 1 binding to purified anti-Bet v 1 monoclonal antibodies were determined using a real-time surface plasmon resonance biosensor (SPR-Biacore) on a Biacore 4000 instrument. All binding studies were performed in 10 mM HEPES, 150 mM NaCl, 3 mM EDTA, and 0.05% v/v surfactant Tween-20, pH 7.4 (HBS-ET) running buffer at 25° C. and 37° C. […] Association (kₐ) and dissociation (kd) rate constants were determined by fitting the real-time binding sensorgrams to a 1:1 binding model with mass transport limitation using Scrubber 2.0c curve-fitting software. Binding dissociation equilibrium constants (KD) and dissociative half-lives (t½) were calculated from the kinetic rate constants as:

| Binder | 100 nM natural Bet v 1-MHH Bound (RU) | Kd | koff | kon | t½ |
| --- | --- | --- | --- | --- | --- |
| B1 | 56 RU | 1.58 nM | 0.00073 s⁻¹ | 462000 M⁻¹ s⁻¹ | 16 min |
| B2 | 36 RU | 106 nM | 0.0847 s⁻¹ | 795000 M⁻¹ s⁻¹ | 0.14 min |
| B3 | 67 RU | 1.48 nM | 0.00106 s⁻¹ | 717000 M⁻¹ s⁻¹ | 11 min |
| B4 | 2 RU |  |  |  |  |
| B5 | 89 RU | 2.02 nM | 0.000899 s⁻¹ | 445000 M⁻¹ s⁻¹ | 13 min |
| B6 | 78 RU | 6.8 nM | 0.00116 s⁻¹ | 171000 M⁻¹ s⁻¹ | 9.9 min |

Biological target: T2, CHO produced recombinant Bet v 1 …
Test: SPR, mAb captured via anti-hFc, 25 C
Protocol: as §2

| Binder | 100 nM natural Bet v 1- MMH Bound (RU) | Kd | koff | kon | t½ | binding result |
| --- | --- | --- | --- | --- | --- | --- |
| B1 | 46 RU | 0.804 nM | 0.00023 s⁻¹ | 286000 M⁻¹ s⁻¹ | 50 min |  |
| B2 | 46 RU | 43.8 nM | 0.0215 s⁻¹ | 490000 M⁻¹ s⁻¹ | 0.5 min |  |
| B3 | 61 RU | 0.735 nM | 0.000287 s⁻¹ | 390000 M⁻¹ s⁻¹ | 40 min |  |
| B4 | 1 RU |  |  |  |  | no binding (tested: 100 nM) |
| B5 | 76 RU | 1.03 nM | 0.000281 s⁻¹ | 272000 M⁻¹ s⁻¹ | 41 min |  |
| B6 | 63 RU | 2.9 nM | 0.000319 s⁻¹ | 110000 M⁻¹ s⁻¹ | 36 min |  |

Biological target: T3, Apple (Mal d 1, MyBiosource, Cat …)
Test: SPR, mAb captured via anti-hFc, 25 C
Protocol: as §1

| Binder | 100 nM Analyte Bound (RU) | binding result |
| --- | --- | --- |
| B1 | 1 RU | no binding (tested: 100 nM) |
| B2 | 2 RU | no binding (tested: 100 nM) |
| B3 | 0 RU | no binding (tested: 100 nM) |
| B4 | 0 RU | no binding (tested: 100 nM) |
| B5 | 0 RU | no binding (tested: 100 nM) |
| B6 | 0 RU | no binding (tested: 100 nM) |

Biological target: T4, Celery (Api g 1, MyBiosource, Cat …)
Test: SPR, mAb captured via anti-hFc, 25 C
Protocol: as §1

| Binder | 100 nM Analyte Bound (RU) | binding result |
| --- | --- | --- |
| B1 | 0 RU | no binding (tested: 100 nM) |
| B2 | 1 RU | no binding (tested: 100 nM) |
| B3 | 0 RU | no binding (tested: 100 nM) |
| B4 | -1 RU |  |
| B5 | 0 RU | no binding (tested: 100 nM) |
| B6 | 0 RU | no binding (tested: 100 nM) |

Biological target: T5, Alder (Aln g 1, MyBiosource, Cat …)
Test: SPR, mAb captured via anti-hFc, 25 C
Protocol: as §1

| Binder | 100 nM Analyte Bound (RU) | binding result | Kd | koff | kon | t½ |
| --- | --- | --- | --- | --- | --- | --- |
| B1 | 0 RU | no binding (tested: 100 nM) |  |  |  |  |
| B2 | 139 RU |  | 3.94 nM | 0.00087 s⁻¹ | 221000 M⁻¹ s⁻¹ | 13 min |
| B3 | 3 RU | no binding (tested: 100 nM) |  |  |  |  |
| B4 | 49 RU |  | 105 nM | 0.0278 s⁻¹ | 264000 M⁻¹ s⁻¹ | 0.4 min |
| B5 | 8 RU | no binding (tested: 100 nM) |  |  |  |  |
| B6 | 9 RU |  | 69.2 nM | 0.00643 s⁻¹ | 92900 M⁻¹ s⁻¹ | 1.8 min |

Biological target: T6, European Hornbeam (Car b 1 isoform 1A & …)
Test: SPR, mAb captured via anti-hFc, 25 C
Protocol: as §1

| Binder | 100 nM Analyte Bound (RU) | binding result | Kd | koff | kon | t½ |
| --- | --- | --- | --- | --- | --- | --- |
| B1 | 1 RU | no binding (tested: 100 nM) |  |  |  |  |
| B2 | 0 RU | no binding (tested: 100 nM) |  |  |  |  |
| B3 | 1 RU | no binding (tested: 100 nM) |  |  |  |  |
| B4 | 0 RU | no binding (tested: 100 nM) |  |  |  |  |
| B5 | 0 RU | no binding (tested: 100 nM) |  |  |  |  |
| B6 | 41 RU |  | 214 nM | 0.00673 s⁻¹ | 31400 M⁻¹ s⁻¹ | 1.7 min |
